Source: PMC11199634 (Nature Communications, 2024)

Molecular target: T1, SDS22 (tag-free, purified) (human, UniProt Q15435 1-360)
T1 construct: SDS22 (PPP1R7), human, wild type; also called SDS22-WT; untagged SDS22; source: HEK293T, transiently transfected; EGFP-SDS22 purified on EGFP-trap beads, tag-free after TEV protease
T1 sequence (looked up): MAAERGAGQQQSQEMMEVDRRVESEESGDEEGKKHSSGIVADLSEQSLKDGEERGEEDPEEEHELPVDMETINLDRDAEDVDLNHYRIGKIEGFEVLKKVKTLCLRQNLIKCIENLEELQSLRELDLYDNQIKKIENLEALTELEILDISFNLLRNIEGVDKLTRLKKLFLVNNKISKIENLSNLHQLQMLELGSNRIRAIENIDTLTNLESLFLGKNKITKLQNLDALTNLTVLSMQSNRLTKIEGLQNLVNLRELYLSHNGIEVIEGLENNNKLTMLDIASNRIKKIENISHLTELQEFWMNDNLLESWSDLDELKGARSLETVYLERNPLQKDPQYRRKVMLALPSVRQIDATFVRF
Test: ITC; 5 μM SDS22 in the cell titrated with 50 μM His-I3 (20 injections), 22 °C, MicroCal iTC200; binding curves not saturated
Conditions: both partners purified

B1: His-I3 (natural protein, human, UniProt O60927 1-126, looked up)
chain: MAEAGAGLSETVTETTVTVTTEPENRSLTIKLRKRKPEKKVEWTSDTVDNEHMGRRSSKCCCIYEKPRAFGESSTESDEEEEEGCGHTHCVRGHRKGRRRATLGPTPTTPPQPPDPSQPPPGPMQH
notes: source: E. coli BL21 (pET16b), purified (Ni2+-Sepharose)
Kd: 7.6 µM
